Assay results published in paper PMC5942779, “Identification of a peptide inhibitor for the histone methyltransferase WHSC1” (PLoS ONE, 2018).
Square brackets hold non-standard residues; d marks the D form. Nle = CCCC[C@H](N)C(=O)O

Tests used:
Experiment in all cases: cell-based or functional assay
G9a = G9a (UniProt Q96KQ7 1-1210)
SETDB1 = SETDB1 (UniProt Q15047 1-1291)
EZH2 = EZH2 (UniProt Q15910 1-746)
SMYD2 = SMYD2 (UniProt Q9NRG4 1-433)
PRMT6 = PRMT6 (UniProt Q96LA8 1-375)
EZH1 = EZH1 (UniProt Q92800 1-747)

Measured: Biochemical IC50 (enzymatic inhibition, panel of HMT enzymes)

EZH2, sequence (Q15910 whole entry): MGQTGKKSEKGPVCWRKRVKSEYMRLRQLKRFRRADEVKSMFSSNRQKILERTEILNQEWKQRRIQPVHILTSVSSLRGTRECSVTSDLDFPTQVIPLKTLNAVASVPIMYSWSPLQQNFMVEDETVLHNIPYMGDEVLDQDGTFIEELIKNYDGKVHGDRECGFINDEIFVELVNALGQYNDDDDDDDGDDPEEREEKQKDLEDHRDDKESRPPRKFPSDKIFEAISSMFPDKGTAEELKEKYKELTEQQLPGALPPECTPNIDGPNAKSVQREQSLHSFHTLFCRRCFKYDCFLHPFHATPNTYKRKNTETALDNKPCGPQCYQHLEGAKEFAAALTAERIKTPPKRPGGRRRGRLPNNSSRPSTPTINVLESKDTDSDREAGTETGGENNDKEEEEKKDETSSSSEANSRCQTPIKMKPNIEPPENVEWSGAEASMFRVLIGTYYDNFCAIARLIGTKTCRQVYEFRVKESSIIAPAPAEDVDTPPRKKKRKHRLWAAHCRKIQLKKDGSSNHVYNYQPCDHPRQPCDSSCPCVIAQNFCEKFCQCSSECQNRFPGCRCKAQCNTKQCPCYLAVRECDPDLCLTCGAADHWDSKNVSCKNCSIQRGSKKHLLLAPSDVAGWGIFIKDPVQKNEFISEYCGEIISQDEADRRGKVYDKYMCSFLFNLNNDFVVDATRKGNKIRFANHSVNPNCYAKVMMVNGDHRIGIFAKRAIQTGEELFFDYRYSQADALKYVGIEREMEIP
PRMT6, sequence (Q96LA8 whole entry): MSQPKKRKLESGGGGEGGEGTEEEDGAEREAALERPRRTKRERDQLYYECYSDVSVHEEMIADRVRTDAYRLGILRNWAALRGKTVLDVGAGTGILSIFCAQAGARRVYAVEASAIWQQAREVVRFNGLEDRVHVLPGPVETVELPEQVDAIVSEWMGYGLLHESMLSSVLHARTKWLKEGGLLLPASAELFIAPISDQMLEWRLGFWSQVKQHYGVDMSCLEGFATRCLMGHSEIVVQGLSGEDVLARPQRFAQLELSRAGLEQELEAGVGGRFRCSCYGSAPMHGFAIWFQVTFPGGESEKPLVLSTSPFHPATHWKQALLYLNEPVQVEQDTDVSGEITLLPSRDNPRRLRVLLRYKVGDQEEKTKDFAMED
EZH1, sequence (Q92800 whole entry): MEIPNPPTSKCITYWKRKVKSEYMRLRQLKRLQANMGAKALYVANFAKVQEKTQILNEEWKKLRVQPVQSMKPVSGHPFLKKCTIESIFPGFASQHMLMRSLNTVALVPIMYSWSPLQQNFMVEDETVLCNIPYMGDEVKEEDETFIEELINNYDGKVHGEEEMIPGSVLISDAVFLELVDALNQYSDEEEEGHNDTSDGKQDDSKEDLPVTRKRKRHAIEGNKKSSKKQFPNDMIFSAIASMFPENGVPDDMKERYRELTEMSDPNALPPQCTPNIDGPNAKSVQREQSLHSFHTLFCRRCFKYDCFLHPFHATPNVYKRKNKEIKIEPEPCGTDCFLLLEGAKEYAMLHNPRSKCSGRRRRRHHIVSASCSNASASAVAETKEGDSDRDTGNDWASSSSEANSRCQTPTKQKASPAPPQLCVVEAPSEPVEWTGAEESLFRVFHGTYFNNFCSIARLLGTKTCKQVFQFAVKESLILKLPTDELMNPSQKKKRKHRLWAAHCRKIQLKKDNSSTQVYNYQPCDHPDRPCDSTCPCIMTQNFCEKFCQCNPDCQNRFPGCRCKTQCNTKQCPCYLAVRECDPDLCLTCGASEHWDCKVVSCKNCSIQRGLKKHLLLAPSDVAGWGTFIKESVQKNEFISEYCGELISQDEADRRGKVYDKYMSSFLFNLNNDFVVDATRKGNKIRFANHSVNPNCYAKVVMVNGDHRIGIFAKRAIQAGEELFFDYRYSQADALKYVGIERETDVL
G9a, sequence (Q96KQ7 whole entry): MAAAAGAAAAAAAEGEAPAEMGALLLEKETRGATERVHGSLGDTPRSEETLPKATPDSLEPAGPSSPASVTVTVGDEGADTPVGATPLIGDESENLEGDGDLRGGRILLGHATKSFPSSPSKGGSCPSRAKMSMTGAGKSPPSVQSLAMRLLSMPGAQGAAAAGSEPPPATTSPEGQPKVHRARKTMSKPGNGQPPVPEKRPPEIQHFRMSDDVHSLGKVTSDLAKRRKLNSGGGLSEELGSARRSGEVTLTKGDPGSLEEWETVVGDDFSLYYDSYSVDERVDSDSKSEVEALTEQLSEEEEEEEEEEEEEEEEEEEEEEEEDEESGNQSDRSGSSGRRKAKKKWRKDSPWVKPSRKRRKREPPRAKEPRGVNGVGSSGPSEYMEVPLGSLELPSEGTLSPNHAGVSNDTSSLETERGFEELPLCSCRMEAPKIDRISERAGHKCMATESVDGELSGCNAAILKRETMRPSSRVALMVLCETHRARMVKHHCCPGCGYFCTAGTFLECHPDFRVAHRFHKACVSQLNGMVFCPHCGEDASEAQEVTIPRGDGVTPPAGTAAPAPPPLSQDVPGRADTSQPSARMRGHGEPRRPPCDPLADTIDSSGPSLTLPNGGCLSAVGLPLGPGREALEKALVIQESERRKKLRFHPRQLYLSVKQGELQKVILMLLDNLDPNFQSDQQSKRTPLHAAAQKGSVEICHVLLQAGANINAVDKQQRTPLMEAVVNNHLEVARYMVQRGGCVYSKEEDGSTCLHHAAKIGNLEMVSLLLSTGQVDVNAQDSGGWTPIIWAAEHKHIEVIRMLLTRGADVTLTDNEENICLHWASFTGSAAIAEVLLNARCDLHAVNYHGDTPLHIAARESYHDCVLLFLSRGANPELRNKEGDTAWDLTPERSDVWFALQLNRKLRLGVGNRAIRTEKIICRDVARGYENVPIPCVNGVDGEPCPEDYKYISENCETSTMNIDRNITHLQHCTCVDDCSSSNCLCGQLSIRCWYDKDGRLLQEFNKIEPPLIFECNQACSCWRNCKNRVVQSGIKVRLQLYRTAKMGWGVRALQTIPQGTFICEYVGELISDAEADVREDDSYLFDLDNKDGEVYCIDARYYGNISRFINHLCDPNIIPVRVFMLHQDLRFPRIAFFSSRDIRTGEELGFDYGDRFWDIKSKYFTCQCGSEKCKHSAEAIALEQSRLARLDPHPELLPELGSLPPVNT
SMYD2, sequence (Q9NRG4 whole entry): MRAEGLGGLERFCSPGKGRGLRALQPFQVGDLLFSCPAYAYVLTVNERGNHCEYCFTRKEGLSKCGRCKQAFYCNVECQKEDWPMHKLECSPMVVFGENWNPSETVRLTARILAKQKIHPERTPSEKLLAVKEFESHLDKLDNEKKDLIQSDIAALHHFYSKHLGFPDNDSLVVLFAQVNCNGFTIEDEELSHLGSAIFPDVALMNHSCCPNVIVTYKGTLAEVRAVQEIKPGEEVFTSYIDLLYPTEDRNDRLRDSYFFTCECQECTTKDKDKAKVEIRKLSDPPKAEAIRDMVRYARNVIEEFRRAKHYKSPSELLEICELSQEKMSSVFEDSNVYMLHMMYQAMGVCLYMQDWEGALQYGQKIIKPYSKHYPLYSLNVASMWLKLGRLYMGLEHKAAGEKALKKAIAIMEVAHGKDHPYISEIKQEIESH

Ac-GV[Nle]RI-NH2 [PTD2]
> 200 µM: all assays above
